The assay deals with 32D c13 cells stably expressing the human Fuc-TIV (myeloid) enzyme. Put plainly: adhesion of 51Cr-loaded cells to plate-captured selectin/IgM fusion protein.

Turning to “human E-selectin/IgM fusion protein (from UniProt P16581)”, the fold binding density relative to untransfected cells was determined as 10 fold.

Source of the values: patent publication US5858752.
